T1: CD27-Fc (human, UniProt P26842 20-191)
T1 construct: extracellular domain; hinge included for covalent assembly; also called CD27 receptor-Fc fusion protein; not shown: human Fc gamma 1 region including the hinge region
T1 sequence (looked up): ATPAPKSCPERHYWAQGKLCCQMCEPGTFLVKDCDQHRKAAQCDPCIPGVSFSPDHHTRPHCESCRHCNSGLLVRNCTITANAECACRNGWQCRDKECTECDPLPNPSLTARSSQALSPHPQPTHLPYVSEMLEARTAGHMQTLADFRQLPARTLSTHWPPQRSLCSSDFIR

T2: OX40-Fc (human, UniProt P43489 29-214)
T2 construct: extracellular domain; hinge included for covalent assembly; also called OX40 receptor-Fc fusion protein; not shown: human Fc gamma 1 region including the hinge region
T2 sequence (looked up): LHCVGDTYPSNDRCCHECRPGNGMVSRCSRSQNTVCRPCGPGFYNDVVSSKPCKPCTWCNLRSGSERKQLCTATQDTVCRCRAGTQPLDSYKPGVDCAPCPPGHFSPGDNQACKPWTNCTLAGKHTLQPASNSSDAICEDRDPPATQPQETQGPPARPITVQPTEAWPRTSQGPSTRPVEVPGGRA

T3: OX40 receptor on cells (human, UniProt P43489 29-277)
T3 sequence (looked up): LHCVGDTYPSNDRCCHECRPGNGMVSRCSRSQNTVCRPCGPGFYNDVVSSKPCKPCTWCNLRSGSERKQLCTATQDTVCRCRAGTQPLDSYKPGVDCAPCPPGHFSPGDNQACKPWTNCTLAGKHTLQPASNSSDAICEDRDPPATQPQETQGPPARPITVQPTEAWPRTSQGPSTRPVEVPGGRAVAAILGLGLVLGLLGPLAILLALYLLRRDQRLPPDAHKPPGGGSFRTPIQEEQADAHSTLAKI


Legend:
[1] = target: CD40 receptor on cells (human, UniProt P25942 21-277); assay: cell-based or functional assay
[2] = target: 4-1BB receptor on cells (human, UniProt Q07011 24-255); assay: cell-based or functional assay
[3] = target: T1, CD27-Fc; assay: ELISA, coated receptor-Fc
[4] = target: T2, OX40-Fc; assay: ELISA, coated receptor-Fc
[5] = target: T4, 4-1BB-Fc (human, UniProt Q07011 24-186); assay: ELISA, coated receptor-Fc
T4 construct: extracellular domain; hinge included for covalent assembly; also called 4-1BB receptor-Fc fusion protein; not shown: human Fc gamma 1 region including the hinge region
Procedure: (§1) Receptor binding of the single-chain Duokines was analyzed by ELISA using fusion proteins of the extracellular region of CD40, CD27, 4-1BB and OX40, respectively, with the human Fcγ1 region including the hinge region for covalent assembly (CD40-Fc, CD27-Fc, 4-1BB-Fc, OX40-Fc). Receptor-Fc fusion proteins (200 ng/well) were coated overnight at 4° C. and remaining binding sites were blocked with PBS, 2% skimmed milk powder (2% MPBS). […] The interactions between scDuokine and receptor were dose-dependent with EC₅₀ values in the low nanomolar ranges (FIG. 11 AB, Tab. 2).

[6] = target: T5, CD40-Fc (human, UniProt P25942 21-193); assay: ELISA, coated receptor-Fc
T5 construct: extracellular domain; hinge included for covalent assembly; also called CD40 receptor-Fc fusion protein; not shown: human Fc gamma 1 region including the hinge region
Procedure: as §1

[7] = target: T5, CD40-Fc; assay: ELISA, coated receptor-Fc; remark: listed apart in the source
[8] = target: T1, CD27-Fc; assay: ELISA, coated receptor-Fc; remark: listed apart in the source
Procedure: as §1

[9] = target: T3, OX40 receptor on cells; assay: cell-based or functional assay
[10] = target: T2, OX40-Fc; assay: ELISA, coated receptor-Fc; remark: listed apart in the source
Procedure: as §1

Sequence of 4-1BB receptor on cells (Q07011 24-255): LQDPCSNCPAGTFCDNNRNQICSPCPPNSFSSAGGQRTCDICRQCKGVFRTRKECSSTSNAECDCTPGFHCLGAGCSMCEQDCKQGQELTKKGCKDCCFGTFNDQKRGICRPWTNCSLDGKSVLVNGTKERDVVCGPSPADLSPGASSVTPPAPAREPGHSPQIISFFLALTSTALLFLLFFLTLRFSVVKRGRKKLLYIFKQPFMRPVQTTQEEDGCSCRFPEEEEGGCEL
T5 sequence (P25942 21-193 limits assumed): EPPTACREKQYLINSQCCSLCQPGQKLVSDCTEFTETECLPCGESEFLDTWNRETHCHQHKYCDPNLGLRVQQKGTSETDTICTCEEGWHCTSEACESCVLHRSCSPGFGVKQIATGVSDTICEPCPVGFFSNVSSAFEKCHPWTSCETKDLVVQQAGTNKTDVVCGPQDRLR
Sequence of CD40 receptor on cells (P25942 21-277): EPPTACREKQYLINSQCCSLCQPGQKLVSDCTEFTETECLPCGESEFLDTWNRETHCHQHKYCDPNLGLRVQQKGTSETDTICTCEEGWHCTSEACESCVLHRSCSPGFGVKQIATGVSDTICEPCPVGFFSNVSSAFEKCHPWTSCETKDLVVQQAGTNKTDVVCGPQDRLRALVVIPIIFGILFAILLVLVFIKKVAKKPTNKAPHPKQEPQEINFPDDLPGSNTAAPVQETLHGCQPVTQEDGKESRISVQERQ

Receptor activation (EC50, nM) [1] [nM] | Receptor activation (EC50, nM) [2] [nM] | binding result [3] | binding result [4] | EC50 [5] [nM] | EC50 [6] [nM] | binding result [7] | EC50 [8] [nM] | Receptor activation (EC50, nM) [9] [nM] | EC50 [10] [nM] | Binder
5.23 | 0.26 | no binding (tested: 100 nM (FIG. 10)) | no binding (tested: 100 nM (FIG. 10)) | 3.17 | 7.02 |  |  |  |  | scCD40L-sc4-1BBL (ligand, scDuokine from HEK293; VH leader left out; also called single-chain Duokine scCD40L-sc4-1BBL; not shown: N-terminal FLAG tag) GDQNPQIAAHVISEASSKTTSVLQWAEKGYYTMSNNLVTLENGKQLTVKRQGLYYIYAQVTFCSNREASSQAPFIASLCLKSPGRFERILLRAANTHSSAKPCGQQSIHLGGVFELQPGASVFVNVTDPSQVSHGTGFTSFGLLKLGGGSGGGGDQNPQIAAHVISEASSKTTSVLQWAEKGYYTMSNNLVTLENGKQLTVKRQGLYYIYAQVTFCSNREASSQAPFIASLCLKSPGRFERILLRAANTHSSAKPCGQQSIHLGGVFELQPGASVFVNVTDPSQVSHGTGFTSFGLLKLGGGSGGGGDQNPQIAAHVISEASSKTTSVLQWAEKGYYTMSNNLVTLENGKQLTVKRQGLYYIYAQVTFCSNREASSQAPFIASLCLKSPGRFERILLRAANTHSSAKPCGQQSIHLGGVFELQPGASVFVNVTDPSQVSHGTGFTSFGLLKLGGGGSGGGTGGGGSREGPELSPDDPAGLLDLRQGMFAQLVAQNVLLIDGPLSWYSDPGLAGVSLTGGLSYKEDTKELVVAKAGVYYVFFQLELRRVVAGEGSGSVSLALHLQPLRSAAGAAALALTVDLPPASSEARNSAFGFQGRLLHLSAGQRLGVHLHTEARARHAWQLTQGATVLGLFRVTPEIPAGLPSPRSEGGGGSGGGGSGGGGSREGPELSPDDPAGLLDLRQGMFAQLVAQNVLLIDGPLSWYSDPGLAGVSLTGGLSYKEDTKELVVAKAGVYYVFFQLELRRVVAGEGSGSVSLALHLQPLRSAAGAAALALTVDLPPASSEARNSAFGFQGRLLHLSAGQRLGVHLHTEARARHAWQLTQGATVLGLFRVTPEIPAGLPSPRSEGGGGSGGGGSGGGGSREGPELSPDDPAGLLDLRQGMFAQLVAQNVLLIDGPLSWYSDPGLAGVSLTGGLSYKEDTKELVVAKAGVYYVFFQLELRRVVAGEGSGSVSLALHLQPLRSAAGAAALALTVDLPPASSEARNSAFGFQGRLLHLSAGQRLGVHLHTEARARHAWQLTQGATVLGLFRVTPEIPAGLPSPRSE
 | 1.5 |  | no binding (tested: 100 nM (FIG. 10)) | 4.57 |  | no binding (tested: 100 nM (FIG. 10)) | 9.23 |  |  | scCD27L-sc4-1BBL (ligand, scDuokine from HEK293; VH leader left out; also called single-chain Duokine scCD27L-sc4-1BBL; not shown: N-terminal FLAG tag) SLGWDVAELQLNHTGPQQDPRLYWQGGPALGRSFLHGPELDKGQLRIHRDGIYMVHIQVTLAICSSTTASRHHPTTLAVGICSPASRSISLLRLSFHQGCTIASQRLTPLARGDTLCTNLTGTLLPSRNTDETFFGVQWVRPGGGSGGGSLGWDVAELQLNHTGPQQDPRLYWQGGPALGRSFLHGPELDKGQLRIHRDGIYMVHIQVTLAICSSTTASRHHPTTLAVGICSPASRSISLLRLSFHQGCTIASQRLTPLARGDTLCTNLTGTLLPSRNTDETFFGVQWVRPGGGSGGGSLGWDVAELQLNHTGPQQDPRLYWQGGPALGRSFLHGPELDKGQLRIHRDGIYMVHIQVTLAICSSTTASRHHPTTLAVGICSPASRSISLLRLSFHQGCTIASQRLTPLARGDTLCTNLTGTLLPSRNTDETFFGVQWVRPGGGGSGGGTGGGGSREGPELSPDDPAGLLDLRQGMFAQLVAQNVLLIDGPLSWYSDPGLAGVSLTGGLSYKEDTKELVVAKAGVYYVFFQLELRRVVAGEGSGSVSLALHLQPLRSAAGAAALALTVDLPPASSEARNSAFGFQGRLLHLSAGQRLGVHLHTEARARHAWQLTQGATVLGLFRVTPEIPAGLPSPRSEGGGGSGGGGSGGGGSREGPELSPDDPAGLLDLRQGMFAQLVAQNVLLIDGPLSWYSDPGLAGVSLTGGLSYKEDTKELVVAKAGVYYVFFQLELRRVVAGEGSGSVSLALHLQPLRSAAGAAALALTVDLPPASSEARNSAFGFQGRLLHLSAGQRLGVHLHTEARARHAWQLTQGATVLGLFRVTPEIPAGLPSPRSEGGGGSGGGGSGGGGSREGPELSPDDPAGLLDLRQGMFAQLVAQNVLLIDGPLSWYSDPGLAGVSLTGGLSYKEDTKELVVAKAGVYYVFFQLELRRVVAGEGSGSVSLALHLQPLRSAAGAAALALTVDLPPASSEARNSAFGFQGRLLHLSAGQRLGVHLHTEARARHAWQLTQGATVLGLFRVTPEIPAGLPSPRSE
 | 2.83 | no binding (tested: 100 nM (FIG. 10)) |  | 4.61 |  | no binding (tested: 100 nM (FIG. 10)) |  | 0.56 | 347 | scOX40L-sc4-1BBL (ligand, scDuokine from HEK293; VH leader left out; also called single-chain Duokine scOX40L-sc4-1BBL; not shown: N-terminal FLAG tag) QVSHRYPRIQSIKVQFTEYKKEKGFILTSQKEDEIMKVQNNSVIINCDGFYLISLKGYFSQEVNISLHYQKDEEPLFQLKKVRSVNSLMVASLTYKDKVYLNVTTDNTSLDDFHVNGGELILIHQNPGEFCVLGGGSGGGQVSHRYPRIQSIKVQFTEYKKEKGFILTSQKEDEIMKVQNNSVIINCDGFYLISLKGYFSQEVNISLHYQKDEEPLFQLKKVRSVNSLMVASLTYKDKVYLNVTTDNTSLDDFHVNGGELILIHQNPGEFCVLGGGSGGGQVSHRYPRIQSIKVQFTEYKKEKGFILTSQKEDEIMKVQNNSVIINCDGFYLISLKGYFSQEVNISLHYQKDEEPLFQLKKVRSVNSLMVASLTYKDKVYLNVTTDNTSLDDFHVNGGELILIHQNPGEFCVLGGGGSGGGTGGGGSREGPELSPDDPAGLLDLRQGMFAQLVAQNVLLIDGPLSWYSDPGLAGVSLTGGLSYKEDTKELVVAKAGVYYVFFQLELRRVVAGEGSGSVSLALHLQPLRSAAGAAALALTVDLPPASSEARNSAFGFQGRLLHLSAGQRLGVHLHTEARARHAWQLTQGATVLGLFRVTPEIPAGLPSPRSEGGGGSGGGGSGGGGSREGPELSPDDPAGLLDLRQGMFAQLVAQNVLLIDGPLSWYSDPGLAGVSLTGGLSYKEDTKELVVAKAGVYYVFFQLELRRVVAGEGSGSVSLALHLQPLRSAAGAAALALTVDLPPASSEARNSAFGFQGRLLHLSAGQRLGVHLHTEARARHAWQLTQGATVLGLFRVTPEIPAGLPSPRSEGGGGSGGGGSGGGGSREGPELSPDDPAGLLDLRQGMFAQLVAQNVLLIDGPLSWYSDPGLAGVSLTGGLSYKEDTKELVVAKAGVYYVFFQLELRRVVAGEGSGSVSLALHLQPLRSAAGAAALALTVDLPPASSEARNSAFGFQGRLLHLSAGQRLGVHLHTEARARHAWQLTQGATVLGLFRVTPEIPAGLPSPRSE

Source: patent publication US20190276511A1 (BIONTECH RNA PHARMACEUTICALS, published 2019)
